Assay: yeast display, Sf9 membrane polyspecificity reagent, FACS + sequencing; frameworks hold sequencing errors
How it was run: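 Galactose-induced (36–48 hours) yeast carrying a synthetic nanobody display library were exposed to 10% biotinylated, detergent-solubilized Sf9 membrane reagent at 4 °C for 1 hour. FACS followed streptavidin microbead enrichment, using low and high (top ~1%) gates for expression (anti-HA) and reagent binding (streptavidin). Colony PCR, MiSeq 2 × 250 sequencing and CDR-length filtering followed. Labels for polyreactivity reflect the gate of origin.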

| Sequence | polyreactivity (PSR sort gate) |
| --- | --- |
| QVQLVESGGGLVQAGGTLRLSCAASGRIFTINAMGWYRQAPGKEREFVAAISGSGGTTYYADSVKGRFTISRDNAMNTVYLQMNSLKPEDTAVYYCAVSQSWYWYYASDYWGQGTQVTVSS | low polyreactivity |
| QVQLVESGGGLVQAGGTLRLSCAASGRIFVYNAMGWYRQAPGKERELVATITSGGSTYYSDSLKGRFTISRDNAKNTLYFQMNSLKPEDTAVYYCAARRWYVHYFAYGYWGQGTQVTVSS | low polyreactivity |
| QVQLVESGGGLVQAGGTLRLSCAASGRILYLNAMGWYRQAPGKEREFVAAISKSGGSTYYADSVKGRFTISRDNAMNSVYLQMNSLKPEDTAVYYCATRFRSAEYDYWGQGTQVTVSS | low polyreactivity |
| QVQLVESGGGLVQAGGTLRLSCAASGSIFGSYAMGWYRQAPGKERELVAAISGSGGRTYYADSVKGRFTISRDNAKNTVYVQMNSLKPEDTAVYYCAAAYPRVTYKYGYYWGQGTHVTVSS | high polyreactivity |
| QVQLVESGGGLVQAGGTLRLSCAASGSIFYYYAMGWYRQAPGKERELVDTISSSSGSTYYADSVKGRFTISRDNAKNTVYLQMISLKPEDTAVYYCAAPLPHRGYYEGYWGQRTQVTVSS | low polyreactivity |
| QVQLVESGGGLVQAGGTLRLSCAASGSTFGWYAMGWYRQAPGKVREFVAAIRGGGSSTYYADSVKWRFTISRDNAKNSVSLQKNSLKQEVTAVYYCAAVTSQLYGKRYYYWGQGTQGTVSS | high polyreactivity |
| QVQLVESGGGLVQAGGTLRLSCAASGSTFGYYAMGWYRQAPGKERELVAAISWRGGSTYYADSVKGRFTISRYNANNTVYLQMNSLKPEDTAVYYCAAPVGNYGSFDYWGQGTKVTVSS | low polyreactivity |
| QVQLVESGGGLVQAGGTLRLSCAASGSTFTDYDMGWYRQAPGQERELVAAITSGGSTNYADSVKGRFTISRDNAKNTVYLQMNSLKPEDTAVYYCAAADADRKYDFWGQGTQVTVSS | low polyreactivity |
| QVQLVESGGGLVQAGGTLRLSCAASGSTFWRNTMEWYRQAPGKERELVAAITGCGGRTYYADSVKGRFTISRDNAKNTVYLQMNSLKPEDTAVYYCAADGRGVHYDYWGQGSQVTVSS | high polyreactivity |
| QVQLVESGGGLVQAGGTLRLSCAASGSTSSNNAMGWYRQAPGKARELVADISTNGDSTSYADSVKGRFTISRDNAKNPVYLLMNSLKPEDTAVYYSAASTYVTYWEYDYWGQGTQVTVSS | low polyreactivity |
| QVQLVESGGGLVQAGGTLRLSCAASGYIFDRNAMGWYRPAPGKERELVAAITKRGGSTYYADSVKGRFTISRDNAKNTVYLQMNSLKPEETAVYYCNALARSSRYDYWGQGTQVTVSS | low polyreactivity |
| QVQLVESGGGLVQAGGTLRLSCAATGRILHIYAMGWYRQAPGKERELVAVISTGGGDTYYADSVKGRFTISRDNANNTVYLQMNSRKPEDTAVYYCAADGYWAGYGYDYWGQGTQVTVSS | high polyreactivity |
| QVQLVESGGGLVQAGGTLRLSCAPSGRIFGIYDMGWYRQAPGKERELVADIDVSDGSTYYADSVKGRFTISRDNAKNTVYLQMNSMKPEDTAVYYCNAEDSSRWYDWYLHDYWGQGTQVTVSS | high polyreactivity |
| QVQLVESGGGLVQAGGTLRLSCAPSGYTFVYNAMGWYRQAPGKEREFVAAISWSGTSTRYADSVKGRFTISRDNAKNTVYLQMNSLKPEDTAVYYCAARRRSAQSGSYNHWGQGTQVTVST | high polyreactivity |
| QVQLVESGGGLVQAGGTLRLSCAPYGIILYRIGMGWYRQAPGKERELVAAISWSTGSTYYADSEKGRFTISRDNAKNTVYLQMNSLKPEDTAVYYCATDYGGYSFGMYYWGQGTQVTVSS | low polyreactivity |
| QVQLVESGGGLVQAGGTLRLSCASSGRIFYHYAMGWDRQAPGKERELVAAISTHTGTTYYADSVKGRFTISRDNAKNTVYLQMNSLKPEDTAVYYCAKRSRYGYGKSYDYWGQGTQVTVST | high polyreactivity |
